Results published in patent US20140342918.

Tested on: Vesicular stomatitis virus (whole virion) (Vesicular stomatitis virus)

Row | Sequence | binding signal (ohm (RCTV-RCTB))
1 | CTCCTCTGACTGTAACCACGTACCACCCGTGACGCGCACATCCCTCCTCTGTTCTCCGCGGGCTTCTGGACTACCTATGC [SwAp2] | 1420
2 | CTCCTCTGACTGTAACCACGNNNNNNNNNNNNNNNNNNNNNNNNNNNNNNNNNNNNNNNGGCTTCTGGACTACCTATGC [Pool 10] | 182
3 | CTCCTCTGACTGTAACCACGCGCCCTCAGAACTTTTGTATCCGAACACCTGCATCGTCCGGGCTTCTGGACTACCTATGC [SwAp1] | 1040
4 | CTCCTCTGACTGTAACCACGTGCCCCCTCCATCCCGAGTAACCTACGTCCATGTCTCGCTGGCTTCTGGACTACCTATGC [SwAp4] | 955
5 | CTCCTCTGACTGTAACCACGTACCACCCGTGGCCCTCACATCCCTCCTCTGTTCTCCGCGGGCTTCTGGACTACCTATGC [SwAp9] | 1180
6 | CTCCTCTGACTGTAACCACGTACCACCCGTGGCCCTCACATCCCTCCTCTGTTCTCCGCGGGCTTCTGGACTACCTATGC [SwAp7] | 1770
7 | TCCTCTGACTGTAACCACGCAGCCACCATACTGTCCCGTTTGCCCCCGCCGATTCCGTCGGCTTCTGGACTACCTATGC [SwAp11] | 373
8 | CTCCTCTGACTGTAACCACGTACCACCCGTGACCCTCACATCCCTCCTCTGACGTAACCACGCGGGCTTCTGGACTACCTATGC [SwAp8] | 1680
9 | CTCCTCTGACTGTAACCACGTGGCACTGTTGTCATCACTGTCCCCCCCTAACTCGTCCGTGGCTTCTGGACTACCTATGC [SwAp6] | 1290
10 | CTCCTCTGACTGTAACCACGGCACCCCGAGGCAATTTCGCGCATAGTTCATCCTGTTTGGGGCTTCTGGACTACCTATGC [SwAp15] | 930
11 | CTCCTCTGACTGTAACCACGTACCACCCTTGACCCTCACATCCCTCCTCTGTTCTCCGCGGGCTTCTGGACTACCTATGC [SwAp14] | 709
12 | CTCCTCTGACTGTAACCACGTACCACCCGTGACCCTCACATCCCTCCTCTGTTCTCCGCGGGCTTCTGGACTACCTATGC [SwAp5] | 838
13 | CTCCTCTGACTGTAACCACGTACCACCCGTGACCCTCACATCCCTCCTCTGTTCTCCGCGGGCTTCTGGACTACCTATGC [SwAp13] | 1980
14 | CTCCTCTGACTGTAACCACGTACCACCCGTGACCCTTACATCCCTCCTCTGTTCTCCGCGGGCTTCTGGACTACCTATGC [SwAp12] | 2180
15 | CTCCTCTGACTGTAACCACGTACCGCCCGTGACCCTCACATCCCTCCTCTGTTCTCCGCGGGCTTCTGGACTACCTATGC [SwAp10] | 3720
16 | CTCCTCTGACTGTAACCACGTGCCCCCTCCATCCCGAGTAACCTACGTCCATGTCTCGCTGGCTTCTGGACTACCTATGC [SwAp3] | 803
